Measured values as given in article PMC2972665 (Biochemistry, 2010).

Molecular target: the molecule itself
Experiment: AUC

B1: Wild type SgrAI (enzyme, Streptomyces griseus, UniProt Q9F6L0 1-339, looked up)
chain: MPFTYSIEATRNLATTERCIQDIRNAPVRNRSTQFQLAQQNMLAYTFGEVIPGFASAGINGMNYRDVIGRPVENAVTEGTHFFRDDFRVDSNAKAKVAGDIFEIVSSAVMWNCAARWNSLMVGEGWRSQPRYSRPTLSPSPRRQVAVLNLPRSFDWVSLLVPESQEVIEEFRAGLRKDGLGLPTSTPDLAVVVLPEEFQNDEMWREEIAGLTRPNQILLSGAYQRLQGRVQPGEISLAVAFKRSLRSDRLYQPLYEANVMQLLLEGKLGAPKVEFEVHTLAPEGTNAFVTYEAASLYGLAEGRSAVHRAIRELYVPPTAADLARRFFAFLNERMELVNG
Q: How did the “stoichiometry N” value turn out when B1 was run?
A: 2 SgrAI chains in the DNA bound dimer
